Reference: the DeepSol protein solubility set

Experiment: soluble on expression in E. coli; label from the status in PepcDB or PDB records

Soluble on expression in E. coli, not soluble:
MNTNLAELPVRIFKILSEELQKDNIWIKIVEFDEDPIYYMKSTEIESFLKREKCCEQVLRKWGNRGQTVGSLLARLQFLSRTYEDEFDSIQFHLRRKFKPLRWIPDPEQQVTKEIDEGNIKLECKAQGFPCPEIKWFTKGSKEPVHIGRVYTILRCKCSNEHQYKCVAKNEIREGSPYSEIYRKAGKQFSSVIESEYVDVTSCIRDDELCESCKKYEMGRLSQILAEDQEKPENKVSPVRPNLDITLRAADKVALIMSNCSYVHLPELRTPHCDAQTLADALQKMNYKTVTLADLTLDEMRYFIRVYQKLIGNGVYAVFYFVGHGFEVNGQCYLLGVDAPADAHQPQHSMSMDWLLSIFRHKTPDLNLLLLDVCRKFVPYDAISAFVEYSEQFKKFHRAHRNMVYGYSTSGGVGAYEVKGEVNGVFMKYLKNHVQLEISVIDMLNKVLLDIGDDQKVCDLQVPEIRSTLTHPRSLADPLIFDGHTASFDNHTIHWRLMHELPTPATIRFETQQLVATIWFQFCGNFTNKVYVFASISDFRPCQEDTDMGENEELSENALNHRAFVEFPEELHCSDVREYNDDEEGVSMLWILSGLQKIKKEAGLTCEVHLRHVDDPEKTIEMKNVDIGHILITRIKCLQ, MNTTANPSNIIVGLSGGVDSSVTAALLKQQGYQVRGVFMQNWEDDDNDEYCSIKQDSFDAIAVADIIGIDIDIVNFAAQYKDKVFAYFLQEYSAGRTPNPDVLCNAEIKFKCFLDYAVGQGADTIATGHYARKEVRNGVHYLLKGLDRNKDQSYFLYRLKPFQLERAIFPLGGLEKPEVRRLAAEFKLPTAAKKDSTGICFIGERPFREFLQKYLPTDNGKMVTPEGKTVGEHVGLMFYTLGQRKGLGIGGAGEPWFVAAKDLTKNELIVVQGHDHPLLYTRSLVMNDLSFTLPERPKAGRYTCKTRYRMADAPCELRYLDDETAELVFDEPQWAVTPGQSAVLYDGDICLGGGIIQTTDKPVIITR, MNVSSSNEDTPNAPDMLSWCVHTQDNHPLPLPELKAKLLALGIDADTYALTTGLSMELEPTTLADAGYDRYQRPLLLTVDAARAWHAMRQAAVGDGIVLDAISGYRSYAYQFGILERKLAQGKTLQEILTVNAAPGFSEHHSGEALDIGMPGESPVEESFEGSSAFAWLHRHAGRFGFHLSYPRNNPHGIVYEPWHWRWRAR, MNVSVLNFGNTPVSFRQDGFLNATAIASHFGKLPKDYLKSEQTQQYISALAENLSVRRKILTEANQIVIVKRGGSEQGTWLHPKLAIHFARWLNPKFAVWCDEQIEILLNGKISDGIKTVTPKPTRALPDGLTGEQIEAVKKLHNALTKSAPKEAQARIAITLWSAVKSKFGCSYKEVPAEQFPEVLSVMGRVAVENGVLYGEVLDREPLPAPQPALPISGNALYDLAVAVRYGAWAIQMGRDVSLPLKQLGCKQAVTMWTVWAETRSRLKAAANALEALNAHADAEHAAKIRPMLPEIRNLSSV, MNVTEQNSHQILIQKLLVSIHYLTLFRDELKLVERTPSILGGEFPAHLVQSELGDIVAAIDTLDMQQRLIESTFWYEESAFKLMNKTLDIVDNWIKGVDHLIDLCQSKEVFQIIIGDKRIRVFGVLSDVFSSLKVSALSLKEAPIPDVLYEHIQRVNLEEEAFIKYYQSPKVPTGEFE, MNVYTFDFNDIKNQSDFYREFTQTFGLASEKVSDLDTLWDAVMSDILPLPLEIEFVHLPDKLRRRYGALILLFDEAEEELEGRLRFNVRH, MNYQLVKQVRENNPLRKSFIDLAVKTFDLSFEEWYQQGYWTDAYIPYAFVERNKVIANASANIIDLRWQGEPRRYIQIGTVMTEPDHRNKGLAGQLIHHILQDWQQEADAFFLFANPTTVDFYPKFGFTRSEEYQYIMPVSPRAGDFRKLDMDSPDDVALLRHYYEKSNPFSPLRVEHNFGLLMFYCSAFMKHFVYYSAKNEAVVIAMQNGPVLICFDLFCDVGKSLSTLVNELADDHVYQAILGFTPSEDRLGEYEKIEGEDILFVYDQKENLFKDRKLMFPLLAHA, MNYTEHYHDWLRDAHAMEKQAESMLESMASRIENYPDIKARIEQHISETKHQITMLEEVLDRNGISRSVLKDSMSKMAAMGQSIGGMFPSDEIVKGSISGYVFEQFEIACYTSLLAAAKKAGDTASIPTIEAILKEEMQMADWLIKHIPQTTEQFLLRSEADGVEAKK, MNYVSLVLVSHSEEIAKGLKKLLKQIAPDVRIAAAGGSDGEIGTNALHIQEAIESVYSEKGTVVLFDLGSALLNAELALEMADRKERVRIADAPLVEGAYIAAVEAGLGKPLEEVVQACEAAKEMVKIAK, MPALSGGDGVIRFQQVSKAYRGGRQALQKVDFHLRRGEMAFLGGHSGAGKSTLLKLICAIERPTDGKISFNGHDITRIPNKDIPFLRRNIGIVFQDHRLLMDRSIYDNVALPMRIESISENEIKRRVSAALDKTGLLDKARCLPSQLSGGEQQRVGIARAVVNRPTLLLADEPTGNLDPELSSRVLRLFEEFNRAGVTILLATHDIHLVNSRPQYRHLELNQGFLSEVADYGR, MPCVFQIWEKGMEKQEIGIYGREKMFMRKKENELQIDWKHFYLGVLALVIPMALQNLINVGVTAADVVMLGRVGETALSGSSLAGQVQY, MPDLTKARCPCRGCNKVANNAEEVEELFGLRNMGDGTIRVQSYCRECRGLHCEASNPKCNHHA, MPEKKSLLEVPPELVFSGPFDHVITTYMTLTNISQSPVCFLVKTTVPNSYCVRPNRGILNIGDSKQIEVMLQPLEKVPPDAKQHKFLVQSCVAPSIDVSDLESVWKNVKPDELTYNRLVVTFVDNTDSKSNIECEICTLEFSSVVDNQIPRILQCGHSICQSCASKLAKNCVILCPFCRNETNVSSVASLPKNFALLQAIDQKTLRVPPLEIAKLRQQLSCQLSKLEEQVSKTDKSIKAVGRAQLSNLKDGREFQERKDSIVSYYASIRETINALENEAIGKLHTIADMNVSKNALLVAELSEILKHQNLKIAELKLSMEMDDVELATRSLTDSGTECAVVKPAVLDVALTFPEIDKMALLSMTTKFPSNFSTV, MPEQDIASLISEHRILLEEAVREVIRRYPQSLSPSENFSKHIFSSEQLKNIIDTVLAEAWQQSAMVVITLCDEKGECVLTYRMPGTSAEDIAVAGRAAEAAVSFAKENKQIIDPTLHNVIGGIDTSRGGCVVYCAGKVIGGIGISGASAEKNHLIALRAVDSLKSGSQK, MPESTNFTEEITQWVESLPNWGKAAVAGGVALAVYIPYKFMATRPRKSPLNENWKPDVVYLYQFPRARLLPNLSPFCMKVETWLRMSDITYEIPPCSLSTRSQEGTLPFVELNGKEYYDSSFILRDIDQVIKHTSLDDHLSAEQKATSRAFEAMSEKSLAISACYYRMENVEKMLDQFDPKLFGIFGFLFKLIGSRTYVSALLRRITGSDIGFHSREDIINIGSEDLKAISKYLGNKHYFHGFKPTKVDACIFSHLCQIYYAPYTSEHRDLIDGECKNLAEYVERIKNRFYPDWDDVTTKFSTDTSNWKKRHVARNGNGKH, MPFIDLQSKLGINVDKWLLAQSGEQPRKRAAFCHAFEKEWIECSHAIGKTRASKECNIEWEDFYECMHRFKTMKRLKEISTQKEKMIKEGTYTPPPHHTGKGEPLS, MPFWGAGIKILHISEDFRTVKVRLKLRWWNKNANRTQYGGSIFSLTDPIYSLMLMGILREEYYVWDKEASINFIKPGQSDLFAEFEITDGMLDEIYQMTRNGEKCFPEFITHVKDKQGNVVSEVQRKLYVRKLEHHHHHH

Soluble on expression in E. coli, soluble:
MNYFNVGKIVNTQGLQGEMRVLSVTDFAEERFKKGAELVLFDEKDQFVQTVTIASHRKQKNFDIIKFKDMYHINTIEKYKGYSLKVAEEDLNDLDDGEFYYHEIIGLEVYEGDSLVGTIKEILQPGANDVWVVKRKGKRDLLLPYIPPVVLNVDIPSKRVDVEILEGLDDEDLEHHHHHH, MPADIMEKNSSSPVAASVNTTPDKPKTASEHRKSSKPIMEKRRRARINESLSQLKTLILDALKKDSSRHSKLEKADILEMTVKHLRNLQRAQMTAALSTDPSVLGKYRAGFSECMNEVTRFLSTCEGVNTEVRTRLLGHLANCMTQINAMTYPGQPHPALQAPPPPPPGPGGPQHAPFAPPPPLVPIPGGAAPPPGGAPCKLGSQAGEAAKVFGGFQVVPAPDGQFAFLIPNGAFAHSGPVIPVYTSNSGTSVGPNAVSPSSGPSLTADSMWRPWRN, MPDSSQLVIGAGLDGLPIAQAMRLANRHGLVAGATGTGKTVTLQRLAEAFSDAGVAVFAADIKGDLCGLGAAGNPQGKVAERIAGMPWLKHQPQAYPVTLWDIHGQSGHPLRTTLSEMGPLLLGSLLELTDSQQSALYAAFKVADREGLLLLDLKDLKALLNHLKDNPQLLGDDAALMTTGSSQALLRRLATLEQQGAEALFGEPALQLEDILQPAADGRGRIHLLDASRLVHEAPKVYATFLLWLLAELFEQLPERGDADKPLLALFFDEAHLLFAGTPKALQDRLEQVVRLIRSKGVGVYFVTQSPGDLPDNVLAQLGLRIQHGLRAFTAKEQKSLRAVADGFRPNPAFDAQAVLTELGIGEALVGTLQDKGTPEMVQRVLVAPPQSRIGPLTEAERQALIASSPLLGRYDKPIDRESAYEVLLGRKELAPQDQQPSGKAAAEEPSLADRAGEFLGTAAGQALKSAMRQAANQLGRQLVRGLMGSLLGGSKRR, MPEDILVDIKRDYVLSKLRDNERIDGRGFDEFRKVEIIPNVIEKAEGSALVKLGDTQVVVGVKMQPGEPYPDTPDRGVIIVNAELVPLASPTFEPGPPDENSIELARVVDRGIRESEAVDLSKLVIEEGEKVWIVFVDIHALDDDGNLLDASALAAIAALMNTKVPAERFDLGEDYLLPVRDLPVSVTSLIVGNKYLVDPSREEMSVGDTTLTITTDKDDNVVAMQKSGGYLLDEKLFDELLDVSINCARKLREKFKEI, MPEEDLVELKFRLYDGSDVGPFQYSPTATVSMLKERIVSEWPKDKKIVPKSASDIKLINAGKILENGKTVAQCKAPFDDLPKSVITMHVVVQLSPTKARPEKKIEKEEAPQRSFCSCTIM, MPELPEVETIRRTLLPLIVGKTIEDVRIFWPNIIRHPRDSEAFAARMIGQTVRGLERRGKFLKFLLDRDALISHLRMEGRYAVASALEPLEPHTHVVFCFTDGSELRYRDVRKFGTMHVYAKEEADRRPPLAELGPEPLSPAFSPAVLAERAVKTKRSVKALLLDCTVVAGFGNIYVDESLFRAGILPGRPAASLSSKEIERLHEEMVATIGEAVMKGGSTVRTYVNTQGEAGTFQHHLYVYGRQGNPCKRCGTPIEKTVVAGRGTHYCPRCQR, MPEPTADAPTVPKARSCPFLPPDGIADIRAAAPVTRATFTSGHEAWLVTGYEEVRALLRDSSFSVQVPHALHTQDGVVTQKPGRGSLLWQDEPEHTSDRKLLAKEFTVRRMQALRPNIQRIVDEHLDAIEARGGPVDLVKTFANAVPSMVISDLFGVPVERRAEFQDIAEAMMRVDQDAAATEAAGMRLGGLLYQLVQERRANPGDDLISALITTEDPDGVVDDMFLMNAAGTLLIAAHDTTACMIGLGTALLLDSPDQLALLREDPSLVGNAVEELLRYLTIGQFGGERVATRDVELGGVRIAKGEQVVAHVLAADFDPAFVEEPERFDITRRPAPHLAFGFGAHQCIGQQLARIELQIVFETLFRRLPGLRLAKPVEELRFRHDIVFYGVHELPVTWHHHH
